From a protein production outcome set (Wang et al. 2014)

Assay: label from the status in PepcDB records

| Sequence | protein production |
| --- | --- |
| MDFQAVTDELKTWTKARVMPGFSVALLTGKTVQTAVSGEAQWFPQPAPLQPHMLYDVASLTKVIGTTTVFLQAWDQGLVSPDMPLHRFLPDFPHTTTFRQALTHTSGLEGYIPHRNALPAPALKQALMTQLTVTEEVDRQVVYRDVNLLLVGWALEQVYHQPIQTLITRQVIQPLALPQATFQPDSQQCVPTTYSPAVGLRQGVVHDPKSAILGKHSGAAGLFASLADLVTFTEYFFGNRQSASWPAHAVDLTQDWTKHHLGRSLGWDLRRDGQGRLWLYHTGYTGTFWLIQPDDQLALVVLTNRVHPQPNPAFLARRDALIARFLSDFKTMPAV | failed |
| MDEYEDSQSPAPSYQYPKETLRKRQNSVQNSGGSVSSRFSRKSFKLDYRLEEDVTKSKKGKDGRFVNPWPTWKNISIPNVLRWLIMEKNHSGVPGSKEELDKELPVLKPYFVSDPEDAGVREAGLRVTWLGHATLMVEMDELIFLTDPMFSSRASPSQYMGPKRFRRPPCTISELPTIDAVLISHNHYDHLDYGSVLALNERFGSELRWFVPLGLLDWMQKCGCENVIELDWWEENCVPGHDKVTFVFTPSQHWCKRTLLDDNKVLWGSWSVLGPWSRFFFAGDTGYCPAFEEIGKRFGPFDLAAIPIGAYEPRWFMKYQHADPEDAVRIHIDLQTKRSVAIHWGTFALANEHYLEPPVKLNEALERYGLSCEDFFILKHGESRYLNTDDRAFEET | failed |
| MPILIVAVGVLILLFLIIKVKLNTFVSLIVVSFLVAIGLGMDINKIVLSIETGIGGQLGHLALVFGLGAMLGRLVSDAGGGYRIAITLIDKFGRKRIQAAVVVASFIIGIALFFEVGLVLLIPIVYAIAKELKMPFLYLGIPMAAALNVTHGFLPPHPAPTAISVAYGAHIGQVLLFGIIIAVPTTVIAGPLFNKFAMKRFPGAYQKHGNLSGLGPRKEFQLDETPGFAISAVTSLFPVIFMAMATIFSLLLSEHSKGKDIIEFIGTPGTAMLISLLLALYTMGYARKISMQEIGRSISESISQIAMMLLIIGGGGAFKQVLIDGGVGDYVADFFRQTNMSPLFVAWTIAAVLRLCLGSATVAALTTAGMAAPLMEAGSVNPALMVLATGAGSVIACHVNDAGFWMVKEFFGLSMKETFQTWTLLTTVLSVTGLGCVLLAGLVM | failed |
| MHNLANLYRTGWPGGVEKDTQKALDLYQKMIDLDVPQGFYDMGAMIGNRAGVKNPATDGLTFLDKAASLGNPPALTELGKFYIYVAKKKDLGLAYTHCAASQGYAPASYELGAYYKIVEHNFPKALVYYQVSVSQGGKSAAFFLSRVFGSETPPASAMWYAPDEKLREAYYSIYKKLEADPLEHHHHHH | failed |
| MFDRLKTMLIKEAIQILRDPKMRFIILVIPAIQITLFGYAVNTDVKHIATAVYDLDNSALSRDLVARLERSGYFDIVQRVQRGDELRDLLDRGKVRAAVQINRGFEENIRAGRTATLPIIVDGTDPSTARIVVSYSVTIAERFSDQILTDYSLRKSGRTTGGNGIELESRAWFNANLESRNYYVPGVIASMVLITTMMLSSMAVVREKEIGTMEQIIVTPIQRWEFIVGKLVPFAIVGYINVTIVTCIALFWFKIPLRGSILLLIGSTALFLMSTLGFGLLISTISRTQQQAMMSSFMFTFPAMLLSGFAFPIENMPTSIQYATYLNPLRYYLVIVRGIFLKGIGLGILWPQLAALALLGSVVLLFAVGRFKKSVG | failed |
| VELPTEYTEQFSSQPTLNSKPIIKFEFTGNSVDAPVLSMASKKFGIDFSILMSQIDYAGGVKFGFVIAEVEGDGEAITAAKCYLINNNVKVEVLGYVG | failed |
| MAIVGTILFAFYSVAIAAAWFFFGQNQTILAIAIVGSVVLVGVQYKVGKWMALRSVGAEDMDEQEFPRIHRRVESLSRDMGIKKPTLKVANMGVPNAFAVGRKGNGTVVVSRELIDILEHEELDGVLAHELSHIANRDVVTMQLGQGIASIVGIVAQYIVLFSGDNDLADFFLAIVVGNLVQFLVTLFVLAISRYREYVADADARRAIGTGEPLARALEKISQGNEQAAQQQRQRTSRGRGRRQRGQRNDDGLDQQVSALCISSPDTSVLQKLVSTHPPTEKRIQRLRS | failed |
| MSINDVAKLFGSAWIVMMADVDAASILTGVADGQTYGYRLIILLLVLTLPLYIVQEAAGRVGAVNNGKGLGTLLREKFSQKFALTAAIPMFLVDLFTYVVEYVGIAVGSLMIGVPVYISLPLFFVIHLSIVLTRTYEKMEKTLLGISFFLVIAFIVQAFLRGVSPNQQLLYFSASKSFLFFLAANIGAVVMPFMIFYQASATAYKYNNSALSKDVKVKWSSMETFIGALVSELLMVAIEISTTGLSSSIDPLNYREMSYALSAISGIYSPYVFGIGLICGGLLALIVESLGSAWGTLEALNKHNHRNTTLLYVFESVPAIIIASIFSQNYDQIVNTVLSLMSVTPIIVFIPAFFVGLLVGDEKIMGKYSYSRRRMVIYWITVVILLISGIMSLL | failed |
